One assay has as its target Fc-CD95 (human) (UniProt P25445). As to the kind of experiment: SPR (BIAcore 2000), biotinylated Fc-CD95 on streptavidin chip, ligand in solution, 1:1 model. (In general: SPR reads the build-up and loss of mass on a sensor chip optically.)
Assay [1] has as its target human CD95 (human) (UniProt P25445). The assay is described as follows: cell-based or functional assay.
The target is the same in assay [2]. As to the kind of experiment: FACS on KB cells, anti-Flag mAb M2 and PE anti-mouse IgG.
Another assay has as its target murine CD95 (murine) (UniProt P25446). The assay is described as follows: FACS on MBL2-CD95 cells, anti-Flag mAb M2 and PE anti-mouse IgG.
UniProt P25446, sequence (P25446 22-327): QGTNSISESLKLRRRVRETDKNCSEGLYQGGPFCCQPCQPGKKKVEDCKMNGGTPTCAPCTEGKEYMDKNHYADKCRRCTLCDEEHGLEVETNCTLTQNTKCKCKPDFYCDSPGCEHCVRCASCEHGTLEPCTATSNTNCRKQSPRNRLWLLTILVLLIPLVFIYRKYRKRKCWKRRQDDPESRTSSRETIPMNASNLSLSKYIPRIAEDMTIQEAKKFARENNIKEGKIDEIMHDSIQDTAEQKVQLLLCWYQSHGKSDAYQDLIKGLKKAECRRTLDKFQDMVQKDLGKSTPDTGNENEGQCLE
A further assay has as its target TRAILR1 (human) (UniProt O00220). As to the kind of experiment: cell-based or functional assay.
UniProt O00220, sequence (O00220 24-468): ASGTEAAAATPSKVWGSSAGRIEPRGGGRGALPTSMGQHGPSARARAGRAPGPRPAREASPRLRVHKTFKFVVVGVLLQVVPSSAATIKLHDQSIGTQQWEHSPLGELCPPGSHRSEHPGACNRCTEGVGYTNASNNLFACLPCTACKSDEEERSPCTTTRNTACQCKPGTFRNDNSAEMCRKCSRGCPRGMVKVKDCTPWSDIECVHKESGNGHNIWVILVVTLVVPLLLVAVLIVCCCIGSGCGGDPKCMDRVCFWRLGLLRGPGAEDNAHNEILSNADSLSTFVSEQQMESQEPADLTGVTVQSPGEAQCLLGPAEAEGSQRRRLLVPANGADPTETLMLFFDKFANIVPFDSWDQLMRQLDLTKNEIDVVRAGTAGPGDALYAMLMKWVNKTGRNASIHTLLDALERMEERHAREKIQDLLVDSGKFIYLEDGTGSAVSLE

Where only a bound is given, the exact number is not on record here.

As usually defined, the Kd is the constant that tells how readily two partners part at equilibrium. The low end stands for higher affinity, the high end for lower affinity. “Flag-TNC-mCD95L(137-279) (from UniProt P10039 110-139) (ligand)” showed a Kd with Fc-CD95 (human) of 26 nM.

With Flag-hCD95L(137-281) (ligand), the protection of KB cells from Fc-hCD95L-induced cell death (competition assay) with human CD95 (human) [1] is 50 ng/mL. Besides, the lowest concentration with significant binding with human CD95 (human) [2] was determined as 0.3 µg/mL; with murine CD95 (murine), 0.1 µg/mL. Moreover, in the assay with Fc-CD95 (human), the Kd turned out to be 39 nM. As to Flag-hTRAIL(95-281) (ligand), the cell death of CHX-sensitized KB cells, no crosslinking (crystal violet) with TRAILR1 (human) is 10 ng/mL.

For mCD95L(137-279) (ligand), the protection of KB cells from Fc-hCD95L-induced cell death (competition assay) in the assay with human CD95 (human) [1] was greater than 1000 ng/mL.

(Values after patent EP2009022A1.)
